Experimental data from article PMC9697831 (2022).
No end group written: not given here. enterokinase site = enterokinase site: N-terminal 6xHis-tag carrying an enterokinase cleavage site; factor Xa site = factor Xa site: N-terminal 6xHis-tag carrying a factor Xa cleavage site

B1: Vm24 (Tag-Vm24) (peptide)
chain: {6xHis tag-factor Xa site}-AAAISCVGSPECPPKCRAQGCKNGKCMNRKCECYYC
modifications: disulfide (positions not given here); ends not checked
B2: Ts6 (Tag-Ts6) (peptide)
chain: {6xHis tag-enterokinase site}-WCSTCLDLACGASRECYDPCFKAFGRAHGKCMNNKCRCYT
modifications: disulfide (positions not given here); ends not checked
B3: Ts6 (Untag-Ts6) (peptide)
chain: WCSTCLDLACGASRECYDPCFKAFGRAHGKCMNNKCRCYT
B4: Anuroctoxin (Untag-AnTx) (peptide)
chain: QKECTGPQHCTNFCRKNKCTHGKCMNRKCKCFNCK
B5: Anuroctoxin (Tag-AnTx) (peptide)
chain: B4 chain
modifications: N-terminal 6xHis-tag with enterokinase site

molecular target: Kv1.3 (Homo sapiens, UniProt P22001); assay: whole-cell patch clamp
Sequence (P22001 whole entry): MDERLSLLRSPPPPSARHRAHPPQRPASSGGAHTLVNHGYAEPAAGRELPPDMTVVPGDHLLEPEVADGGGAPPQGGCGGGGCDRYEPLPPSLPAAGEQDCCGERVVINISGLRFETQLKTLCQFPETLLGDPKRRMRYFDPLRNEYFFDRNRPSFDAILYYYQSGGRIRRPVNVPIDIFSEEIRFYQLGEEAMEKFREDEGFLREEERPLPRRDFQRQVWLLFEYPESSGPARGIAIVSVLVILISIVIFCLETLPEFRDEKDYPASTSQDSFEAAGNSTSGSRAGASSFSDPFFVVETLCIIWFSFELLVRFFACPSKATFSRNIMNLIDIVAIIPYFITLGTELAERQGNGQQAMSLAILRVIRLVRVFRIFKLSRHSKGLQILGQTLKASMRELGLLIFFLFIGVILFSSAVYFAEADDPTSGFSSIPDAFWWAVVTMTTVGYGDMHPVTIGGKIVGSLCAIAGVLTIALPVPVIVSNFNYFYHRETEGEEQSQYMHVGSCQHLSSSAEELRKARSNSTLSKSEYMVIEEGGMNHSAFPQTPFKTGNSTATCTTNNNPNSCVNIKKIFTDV

**Q.** Which Kd does the source give for B1 here?
**A.** 0.0044 nM

**Q.** With B2 as the binder, how does the Kd read?
**A.** 887 nM

**Q.** How did the Kd turn out when B3 was run?
**A.** 29.1 nM

**Q.** B4 was tested. Which Kd did it give?
**A.** 0.72 nM

**Q.** With B5 as the binder, how does the Kd read?
**A.** 1.29 nM
